Experimental findings from patent US20220323561A1 (ENTEROME S A, published 2022) are described below.

Test [1] deals with T1, HLA-A*0201 molecule expressed on human T2 cells (human).
T1 construct: also called HLA-A2
As to the kind of experiment: T2 cells (HLA-A*0201), peptide at 10 µM, anti-HLA-A2 flow cytometry. The protocol:
(§1) T2 cells (5.104 cells per well) are incubated with decreasing concentrations of peptides from 100 μM to 0.1 μM (4 points: 100 μM, 10 μM, 1 μM, 0.1 μM) in serum-free medium (TexMacs) supplemented with […] of β2 Microglobulin at 37° C. for 16 hours. Cells are then washed two times and marked with the anti-HLA-A2 antibody coupled to PE (clone BB7.2, BD Pharmagen).
(§2) The relative affinity is then determined as follows: […]
In general terms: Flow cytometry measures light scatter and fluorescence of single cells or particles in a stream.

Test [2] has as its target T1, HLA-A*0201 molecule expressed on human …. As to the kind of experiment: T2 cells (HLA-A*0201), peptide at 1 µM, anti-HLA-A2 flow cytometry. The protocol: as §1, §2
Test [3] shares this target. As to the kind of experiment: T2 cells (HLA-A*0201), peptide at 0.1 µM, anti-HLA-A2 flow cytometry. The protocol: as §1, §2
Test [4] shares this target. As to the kind of experiment: T2 cells (HLA-A*0201), peptide titration, anti-HLA-A2 flow cytometry. The protocol:
as §1, §2

Test [5] has the same target. As to the kind of experiment: T2 cells (HLA-A*0201), peptide at 100 µM, anti-HLA-A2 flow cytometry. The protocol: as §1, §2

For YVFEHPELL [CD22-B11], the “mean relative fluorescence intensity (HIV peptide = 100)” value (“mean relative fluorescence intensity” below) in test [1] is 124 % of HIV pol 589-597 at 100 µM; in test [2], 60.5 % of HIV pol 589-597 at 100 µM; in test [3], 6.4 % of HIV pol 589-597 at 100 µM; in test [5] it was 141 % of HIV pol 589-597 at 100 µM. Besides, the “concentration of peptide that induces 20% of HLA-A2 expression” value in test [4] was 0.2 µM. In addition, the “in vitro binding affinity (relative to HIV pol reference peptide)” value in test [4] is 0.5 ratio to HIV pol 589-597.
On to SLVGILHII [CD19-B11], for which the “mean relative fluorescence intensity” value in test [1] is 30.5 % of HIV pol 589-597 at 100 µM; in test [2], 5.2 % of HIV pol 589-597 at 100 µM; in test [3] it was 0 % of HIV pol 589-597 at 100 µM; in test [5], 108 % of HIV pol 589-597 at 100 µM. Moreover, the “concentration of peptide that induces 20% of HLA-A2 expression” value in test [4] amounted to 5.97 µM. Besides, the “in vitro binding affinity (relative to HIV pol reference peptide)” value in test [4] was 0.8 ratio to HIV pol 589-597.
In the case of LMFGAPALV [TNFRSF13C-B1], the “mean relative fluorescence intensity” value was 37 % of HIV pol 589-597 at 100 µM in test [1], 7 % of HIV pol 589-597 at 100 µM in test [2], 1 % of HIV pol 589-597 at 100 µM in test [3] and 90 % of HIV pol 589-597 at 100 µM in test [5]. In addition, the “concentration of peptide that induces 20% of HLA-A2 expression” value in test [4] came to 4.35 µM. The “in vitro binding affinity (relative to HIV pol reference peptide)” value in test [4] was 1.1 ratio to HIV pol 589-597.
For YLAYLIFEL [CD19-B6], the “mean relative fluorescence intensity” value in test [1] was 52.5 % of HIV pol 589-597 at 100 µM; in test [2], 5.4 % of HIV pol 589-597 at 100 µM; in test [3], 0 % of HIV pol 589-597 at 100 µM. Further, in test [4], the “concentration of peptide that induces 20% of HLA-A2 expression” value is 3.76 µM. The “in vitro binding affinity (relative to HIV pol reference peptide)” value in test [4] is 0.4 ratio to HIV pol 589-597.
LLVGILHLV [CD19-B1]: the “mean relative fluorescence intensity” value is 40 % of HIV pol 589-597 at 100 µM in test [1], 8 % of HIV pol 589-597 at 100 µM in test [2] and 93 % of HIV pol 589-597 at 100 µM in test [5]. In addition, the “concentration of peptide that induces 20% of HLA-A2 expression” value in test [4] is 3.7 µM. Further, the “in vitro binding affinity (relative to HIV pol reference peptide)” value in test [4] was 0.7 ratio to HIV pol 589-597.
TLLFLTPML [CD19-B2]: the “mean relative fluorescence intensity” value in test [1] is 114 % of HIV pol 589-597 at 100 µM; in test [2], 41 % of HIV pol 589-597 at 100 µM; in test [3], 12 % of HIV pol 589-597 at 100 µM. The “concentration of peptide that induces 20% of HLA-A2 expression” value in test [4] was 0.38 µM. In addition, the “in vitro binding affinity (relative to HIV pol reference peptide)” value in test [4] is 1 ratio to HIV pol 589-597.
On to GMAFVPLLL (also called CD37-B11i) [CD37-B11], for which the “mean relative fluorescence intensity” value is 48.9 % of HIV pol 589-597 at 100 µM in test [1], 1.6 % of HIV pol 589-597 at 100 µM in test [2], 0 % of HIV pol 589-597 at 100 µM in test [3] and 57.8 % of HIV pol 589-597 at 100 µM in test [5]. In test [4], the “concentration of peptide that induces 20% of HLA-A2 expression” value was 2.3 µM. Moreover, the “in vitro binding affinity (relative to HIV pol reference peptide)” value in test [4] is 3 ratio to HIV pol 589-597.
Take YLFLGILSL [MS4A1-B5]: the “mean relative fluorescence intensity” value was 29.8 % of HIV pol 589-597 at 100 µM in test [1], 0.2 % of HIV pol 589-597 at 100 µM in test [2] and 0 % of HIV pol 589-597 at 100 µM in test [3]. For the same molecule, the “concentration of peptide that induces 20% of HLA-A2 expression” value in test [4] amounted to 6.77 µM. Also, in test [4], the “in vitro binding affinity (relative to HIV pol reference peptide)” value is 0.7 ratio to HIV pol 589-597.
Turning to IMNSLSLFA [MS4A1-H4], the “mean relative fluorescence intensity” value in test [1] was 2.6 % of HIV pol 589-597 at 100 µM; in test [2] it was 0.3 % of HIV pol 589-597 at 100 µM; in test [3], 0 % of HIV pol 589-597 at 100 µM; in test [5], 13.4 % of HIV pol 589-597 at 100 µM.
On to ILPGLLFGL [TNFRSF13C-B31], for which the “mean relative fluorescence intensity” value in test [1] was 71.9 % of HIV pol 589-597 at 100 µM; in test [2], 1.5 % of HIV pol 589-597 at 100 µM; in test [3], 0 % of HIV pol 589-597 at 100 µM; in test [5], 104 % of HIV pol 589-597 at 100 µM. Further, the “concentration of peptide that induces 20% of HLA-A2 expression” value in test [4] was determined as 1.6 µM. Besides, the “in vitro binding affinity (relative to HIV pol reference peptide)” value in test [4] was 0.4 ratio to HIV pol 589-597.
As to GLAFVPLQI [CD37-H1], the “mean relative fluorescence intensity” value in test [1] is 27 % of HIV pol 589-597 at 100 µM; in test [2], 0 % of HIV pol 589-597 at 100 µM; in test [3], 2 % of HIV pol 589-597 at 100 µM; in test [5], 153 % of HIV pol 589-597 at 100 µM. The “concentration of peptide that induces 20% of HLA-A2 expression” value in test [4] was determined as 7.35 µM. The “in vitro binding affinity (relative to HIV pol reference peptide)” value in test [4] was 17.5 ratio to HIV pol 589-597.
As for IALGGLLMI [MS4A1-H1], the “mean relative fluorescence intensity” value is 1.9 % of HIV pol 589-597 at 100 µM in test [1], 0.7 % of HIV pol 589-597 at 100 µM in test [2] and 0 % of HIV pol 589-597 at 100 µM in test [3].
As for SLVGILHLQ [CD19-H1], the “mean relative fluorescence intensity” value in test [1] is 1 % of HIV pol 589-597 at 100 µM; in test [2], 0 % of HIV pol 589-597 at 100 µM; in test [3], 1 % of HIV pol 589-597 at 100 µM; in test [5], 0 % of HIV pol 589-597 at 100 µM.
As for ILNSLSLLL [MS4A1-B41], in test [4], the “concentration of peptide that induces 20% of HLA-A2 expression” value was found to be 2.45 µM and the “in vitro binding affinity (relative to HIV pol reference peptide)” value was 0.3 ratio to HIV pol 589-597.
On to PLPGLLFGA [TNFRSF13C-H3], for which the “mean relative fluorescence intensity” value in test [1] was 0 % of HIV pol 589-597 at 100 µM; in test [2], 0 % of HIV pol 589-597 at 100 µM; in test [3], 0 % of HIV pol 589-597 at 100 µM; in test [5], 8.4 % of HIV pol 589-597 at 100 µM.
Take WVFEHPETL [CD22-H1]: the “mean relative fluorescence intensity” value in test [1] is 71 % of HIV pol 589-597 at 100 µM; in test [2], 10 % of HIV pol 589-597 at 100 µM; in test [3] it was 2 % of HIV pol 589-597 at 100 µM; in test [5], 158 % of HIV pol 589-597 at 100 µM. The “concentration of peptide that induces 20% of HLA-A2 expression” value in test [4] was found to be 1.97 µM. The “in vitro binding affinity (relative to HIV pol reference peptide)” value in test [4] was 5.3 ratio to HIV pol 589-597.
LLFGAPALL (also called TNFRSF13-H1) [TNFRSF13C-H1]: the “mean relative fluorescence intensity” value in test [1] was 17 % of HIV pol 589-597 at 100 µM; in test [2] it was 2 % of HIV pol 589-597 at 100 µM; in test [3], 0 % of HIV pol 589-597 at 100 µM; in test [5], 92 % of HIV pol 589-597 at 100 µM. Moreover, the “concentration of peptide that induces 20% of HLA-A2 expression” value in test [4] came to 11.8 µM. Also, the “in vitro binding affinity (relative to HIV pol reference peptide)” value in test [4] was 3 ratio to HIV pol 589-597.
On to FMPGLLFGA [TNFRSF13C-B33], for which the “mean relative fluorescence intensity” value in test [1] is 15.5 % of HIV pol 589-597 at 100 µM; in test [2] it was 1.3 % of HIV pol 589-597 at 100 µM; in test [3], 0 % of HIV pol 589-597 at 100 µM; in test [5], 99.6 % of HIV pol 589-597 at 100 µM. Besides, the “concentration of peptide that induces 20% of HLA-A2 expression” value in test [4] was 13.2 µM. Moreover, in test [4], the “in vitro binding affinity (relative to HIV pol reference peptide)” value is 3.5 ratio to HIV pol 589-597.
LQMGGFYLL [CD19-B7]: the “mean relative fluorescence intensity” value is 4.5 % of HIV pol 589-597 at 100 µM in test [1], 4.8 % of HIV pol 589-597 at 100 µM in test [2], 6 % of HIV pol 589-597 at 100 µM in test [3] and 31.8 % of HIV pol 589-597 at 100 µM in test [5]. In test [4], the “concentration of peptide that induces 20% of HLA-A2 expression” value amounted to 49.6 µM. In addition, the “in vitro binding affinity (relative to HIV pol reference peptide)” value in test [4] was 6.8 ratio to HIV pol 589-597.
Regarding TLAYLIFCL [CD19-H6], the “mean relative fluorescence intensity” value in test [1] was 39.6 % of HIV pol 589-597 at 100 µM; in test [2], 4.1 % of HIV pol 589-597 at 100 µM; in test [3], 0 % of HIV pol 589-597 at 100 µM. The “concentration of peptide that induces 20% of HLA-A2 expression” value in test [4] stood at 4.98 µM. In addition, the “in vitro binding affinity (relative to HIV pol reference peptide)” value in test [4] is 0.5 ratio to HIV pol 589-597.
For FLAFVPLQL (also called CD37-B1i) [CD37-B1], the “mean relative fluorescence intensity” value was 106 % of HIV pol 589-597 at 100 µM in test [1], 35 % of HIV pol 589-597 at 100 µM in test [2], 5 % of HIV pol 589-597 at 100 µM in test [3] and 157 % of HIV pol 589-597 at 100 µM in test [5]. Besides, in test [4], the “concentration of peptide that induces 20% of HLA-A2 expression” value stood at 0.65 µM. Further, the “in vitro binding affinity (relative to HIV pol reference peptide)” value in test [4] was 1.6 ratio to HIV pol 589-597.
On to FLLFLTPME [CD19-H2], for which the entries for the “mean relative fluorescence intensity” value in test [1], in test [2] and in test [5] were 7 % of HIV pol 589-597 at 100 µM, 3 % of HIV pol 589-597 at 100 µM and 7 % of HIV pol 589-597 at 100 µM, respectively.
